According to paper PMC11825685 (Nature Communications, 2024):

Experiments:
[1] = molecular target: Mycobacterium tuberculosis (Mtb) PhoP, phosphorylated (Mycobacterium tuberculosis) (UniProt P71814); experiment: cryo-EM structure
Mtb RNAP α subunit = molecular target: T1, Mtb RNAP α subunit (Mycobacterium tuberculosis, UniProt P9WGZ1); experiment: cryo-EM structure
T1 sequence: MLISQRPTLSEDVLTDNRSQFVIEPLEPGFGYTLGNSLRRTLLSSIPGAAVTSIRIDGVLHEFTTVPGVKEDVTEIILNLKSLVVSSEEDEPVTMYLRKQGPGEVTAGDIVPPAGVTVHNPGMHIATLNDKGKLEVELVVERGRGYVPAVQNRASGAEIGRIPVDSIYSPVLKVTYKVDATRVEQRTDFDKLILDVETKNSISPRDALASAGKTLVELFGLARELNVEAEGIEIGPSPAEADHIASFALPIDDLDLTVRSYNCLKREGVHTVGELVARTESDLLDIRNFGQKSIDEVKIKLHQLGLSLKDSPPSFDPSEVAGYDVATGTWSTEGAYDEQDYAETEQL

cryo-EM structure = molecular target: the molecule itself; experiment: cryo-EM structure
Mtb RNAP σ^A = molecular target: T2, Mtb RNAP σ^A (Mycobacterium tuberculosis, UniProt P9WGI1); experiment: cryo-EM structure
T2 sequence: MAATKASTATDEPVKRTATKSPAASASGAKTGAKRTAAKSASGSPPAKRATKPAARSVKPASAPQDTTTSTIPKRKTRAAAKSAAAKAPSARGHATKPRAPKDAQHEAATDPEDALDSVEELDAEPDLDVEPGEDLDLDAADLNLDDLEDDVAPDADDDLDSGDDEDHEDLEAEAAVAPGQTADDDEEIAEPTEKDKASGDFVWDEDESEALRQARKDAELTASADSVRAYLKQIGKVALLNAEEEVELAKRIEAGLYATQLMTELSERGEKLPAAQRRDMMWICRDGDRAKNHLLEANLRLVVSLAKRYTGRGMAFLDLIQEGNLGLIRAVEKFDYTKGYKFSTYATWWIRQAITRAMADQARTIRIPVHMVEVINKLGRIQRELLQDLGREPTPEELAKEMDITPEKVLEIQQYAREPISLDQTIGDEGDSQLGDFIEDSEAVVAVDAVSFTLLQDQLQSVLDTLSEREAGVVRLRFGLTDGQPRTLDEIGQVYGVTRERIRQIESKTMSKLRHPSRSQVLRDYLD

Mtb RNAP β subunit = molecular target: T3, Mtb RNAP β subunit (Mycobacterium tuberculosis, UniProt P9WGY9 1-1178); experiment: cryo-EM structure
T3 sequence: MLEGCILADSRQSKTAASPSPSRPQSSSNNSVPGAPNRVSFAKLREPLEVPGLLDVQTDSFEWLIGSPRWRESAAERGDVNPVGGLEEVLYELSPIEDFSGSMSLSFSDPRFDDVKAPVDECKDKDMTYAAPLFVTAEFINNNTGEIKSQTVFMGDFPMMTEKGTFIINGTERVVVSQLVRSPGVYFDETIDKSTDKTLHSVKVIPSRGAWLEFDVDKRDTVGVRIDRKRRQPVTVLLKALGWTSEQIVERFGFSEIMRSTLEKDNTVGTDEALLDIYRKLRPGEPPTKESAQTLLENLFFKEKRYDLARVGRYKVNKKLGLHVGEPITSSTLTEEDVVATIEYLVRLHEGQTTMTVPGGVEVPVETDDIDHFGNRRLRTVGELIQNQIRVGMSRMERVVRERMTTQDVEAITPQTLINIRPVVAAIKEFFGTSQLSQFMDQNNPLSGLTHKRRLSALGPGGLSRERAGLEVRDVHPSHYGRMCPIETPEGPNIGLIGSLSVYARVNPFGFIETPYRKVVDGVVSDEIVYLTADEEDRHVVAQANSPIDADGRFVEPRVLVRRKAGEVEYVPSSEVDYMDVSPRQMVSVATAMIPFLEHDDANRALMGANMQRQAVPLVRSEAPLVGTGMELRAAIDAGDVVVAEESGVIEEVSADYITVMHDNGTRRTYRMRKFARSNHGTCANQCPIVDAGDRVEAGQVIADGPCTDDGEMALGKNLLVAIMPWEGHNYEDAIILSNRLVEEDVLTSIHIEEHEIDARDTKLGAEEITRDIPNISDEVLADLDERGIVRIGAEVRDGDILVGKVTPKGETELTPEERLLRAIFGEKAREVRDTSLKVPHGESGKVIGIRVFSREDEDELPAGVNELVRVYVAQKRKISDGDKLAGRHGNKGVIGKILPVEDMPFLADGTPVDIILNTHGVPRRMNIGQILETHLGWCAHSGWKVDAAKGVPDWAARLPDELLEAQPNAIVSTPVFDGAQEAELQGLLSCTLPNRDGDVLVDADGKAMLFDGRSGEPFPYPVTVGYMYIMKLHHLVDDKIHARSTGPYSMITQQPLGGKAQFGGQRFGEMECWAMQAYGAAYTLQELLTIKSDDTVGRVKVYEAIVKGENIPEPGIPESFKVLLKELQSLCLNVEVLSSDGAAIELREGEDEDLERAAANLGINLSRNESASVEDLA

[2] = molecular target: RNAP holoenzyme (sigma A);GlnR (Mycobacterium …, UniProt P9WGZ1;P9WGY9;P9WGY7;P9WGY5;P9WGI1;O53830 1-347;1-1178;1-1316;1-110;1-528;1-255, |); experiment: EMSA

Molecule: Mycobacterium tuberculosis (Mtb) PhoP, phosphorylated (from UniProt P71814 1-247) (natural protein)
- stoichiometry N [1]: 2

B1: Mtb GlnR (natural protein)
chain: MLELLLLTSELYPDPVLPALSLLPHTVRTAPAEASSLLEAGNADAVLVDARNDLSSGRGLCRLLSSTGRSIPVLAVVSEGGLVAVSADWGLDEILLLSTGPAEIDARLRLVVGRRGDLADQESLGKVSLGELVIDEGTYTARLRGRPLDLTYKEFELLKYLAQHAGRVFTRAQLLHEVWGYDFFGGTRTVDVHVRRLRAKLGPEHEALIGTVRNVGYKAVRPARGRPPAADPDDEDADPGRDGMQEPLVDPLRSQ
- binding result (Mtb RNAP α subunit): binds
- binding result (cryo-EM structure): binds
- binding result (Mtb RNAP σ^A): binds
- binding result (Mtb RNAP β subunit): binds

B2: phoU promoter (mango-fused) (dsDNA)
DNA 1: ACCTCGAACACTCGTCGCCCAGAGTTCACCTTGGAGCCAGGGACGGTTCATTTGGGGTGCCGGAAACGGACGCGTACAGGCCGGAACGTGTAAGCGTGGGGGCACGGCGGGGGGCGCGAAGCCGGCACGTACGAAGGAAGGATTGGTATGTGGTATATTCGTACGTGCC
DNA 2: GGCACGTACGAATATACCACATACCAATCCTTCCTTCGTACGTGCCGGCTTCGCGCCCCCCGCCGTGCCCCCACGCTTACACGTTCCGGCCTGTACGCGTCCGTTTCCGGCACCCCAAATGAACCGTCCCTGGCTCCAAGGTGAACTCTGGGCGACGAGTGTTCGAGGT
- binding result [2]: no binding
